Experimental data as given in patent publication US8404647B2, “Peptidylarginine deiminase (PAD) inhibitors” (Chiralix B.V., priority 2008, dated 2013).
Numbered stars: 1 amine (or outer) side, 2 acyl side, 3 side chain; on linkers, the order of the positions; unused ones are H or OH. Square brackets hold non-standard residues; d marks the D form. Peptide text beside a SMILES is read from it. * marks the point of attachment. CA = chloroamidine (on ornithine side chain, O(CA) = ornithine chloroamidine), N=C(CCl)*; Orn(fluoroacetimidoyl) = N=C(CF)NCCC[C@H](N)C(=O)O; X1 = N=C(CCl)NCCC[C@H](N[*:1])C(=O)[*:2]; Orn = NCCC[C@H](N)C(=O)O; Moc = COC(=O)*

How the values were obtained:
[1] = molecular target: creatine kinase (CK); experiment: Creatine kinase activity (CK NAC activated liquiUV test); format: biochemical, mammalian; details: enzyme treated with inhibitor 10 min at room temperature
Method: (§2) The activities of CK and TG (both purchased from Sigma-Aldrich (Schnelldorf, Germany) were assayed with the help of the commercial kits CK NAC activated liquiUV test form
(§3) Human GmbH (Wiesbaden, Germany) and the Enzymatic Assay of [sequence] from Sigma-Aldrich (Schnelldorf, Germany) according to the manufacturers' instructions.

[2] = molecular target: T1, caspase-3 (Homo sapiens, UniProt P42574); experiment: Caspase-3 activity assay (Ac-DEVDpNA cleavage); format: biochemical, mammalian; details: enzyme treated with inhibitor 10 min at room temperature
T1 sequence (P42574 29-175 limits assumed): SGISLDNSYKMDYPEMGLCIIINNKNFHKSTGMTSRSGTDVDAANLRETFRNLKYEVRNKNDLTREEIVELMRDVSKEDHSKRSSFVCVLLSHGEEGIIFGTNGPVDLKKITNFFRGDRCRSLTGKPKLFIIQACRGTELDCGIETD
T1 sequence (P42574 176-277 limits assumed): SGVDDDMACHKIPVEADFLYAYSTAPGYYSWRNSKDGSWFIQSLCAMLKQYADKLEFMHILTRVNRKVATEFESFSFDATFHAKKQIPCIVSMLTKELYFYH
Method: Upon incubation of purified recombinant caspase-3 with its commercially available substrate: acetyl-Asp-Glu-Val-Asp-p-nitroanilide (Ac-DEVDpNA) SEQ ID NO: 145 in CFS buffer (220 mM mannitol, 68 mM sucrose, 2mM NaCl, 2.5 mM KH2PO4, 10 mM HEPES, pH 7.4 plus a cocktail of protease inhibitors), the substrate is cleaved, pNA is released and its absorbance at 405 nm can be monitored.

[3] = molecular target: transglutaminase (TG) (UniProt P08587); experiment: biochemical
Chain of transglutaminase (TG) (P08587 whole entry): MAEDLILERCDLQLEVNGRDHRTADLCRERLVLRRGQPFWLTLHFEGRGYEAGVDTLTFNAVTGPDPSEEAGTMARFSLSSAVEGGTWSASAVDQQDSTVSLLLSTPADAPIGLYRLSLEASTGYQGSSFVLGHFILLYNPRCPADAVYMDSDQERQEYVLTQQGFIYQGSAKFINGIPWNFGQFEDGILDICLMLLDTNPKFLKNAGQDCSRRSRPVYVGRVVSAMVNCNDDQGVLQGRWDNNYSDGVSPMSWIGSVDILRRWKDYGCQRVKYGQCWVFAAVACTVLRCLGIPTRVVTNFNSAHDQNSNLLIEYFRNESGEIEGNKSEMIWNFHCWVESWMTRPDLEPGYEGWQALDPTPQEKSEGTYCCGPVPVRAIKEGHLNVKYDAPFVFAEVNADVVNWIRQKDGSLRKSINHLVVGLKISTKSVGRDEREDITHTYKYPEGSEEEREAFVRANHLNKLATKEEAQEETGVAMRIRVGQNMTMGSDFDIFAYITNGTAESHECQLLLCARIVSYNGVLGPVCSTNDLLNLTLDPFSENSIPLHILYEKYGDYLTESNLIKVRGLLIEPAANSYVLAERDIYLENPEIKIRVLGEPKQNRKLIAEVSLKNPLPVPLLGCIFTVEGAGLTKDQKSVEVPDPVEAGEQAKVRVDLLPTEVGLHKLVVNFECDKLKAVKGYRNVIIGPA
Method: as §2, §3

[4] = molecular target: papain (Carica papaya, UniProt P00784); experiment: biochemical
Chain of papain (P00784 134-345): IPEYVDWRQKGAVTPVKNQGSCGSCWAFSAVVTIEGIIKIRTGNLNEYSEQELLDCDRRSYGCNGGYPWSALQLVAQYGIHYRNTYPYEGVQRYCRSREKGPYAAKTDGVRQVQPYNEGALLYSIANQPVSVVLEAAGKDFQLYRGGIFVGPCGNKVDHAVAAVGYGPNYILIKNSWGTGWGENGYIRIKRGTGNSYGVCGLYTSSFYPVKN
Method: The activity of papain was assessed using a similar experimental setting, based on its cleavage of pGlu-Phe-Leu-pNA in reaction buffer (25 mM Tris-HCL, pH 7.6; 150 mM NaCl).

[5] = tested on: PAD2; details: low doses, in vitro; cited from earlier work
[6] = tested on: collagen antibody induced arthritis (CAIA); experiment: Collagen antibody induced arthritis (CAIA) mouse model; format: in vivo; details: 0.5 mg daily i.v. day 3 to 11 except day 9, male DBA/J1 mice, FIG. 6
Method: FIG. 6. The collagen antibody induced arthritis (CAIA) model (MQR; 18.101) was used to test the therapeutic effect of the PAD-inhibitor CXP5.7-011 (SEQ ID NO:143). At day 0 mice were injected i.p. with 2.8 mg anti-collagen antibodies. LPS (25 μg/mouse) was administered on day 3 via i.p. injection. The inhibitor (0.5 mg CXP5.7-011 in 200 μl PBS containing 20 mM sodium phosphate), or 200 μl PBS containing 20 mM sodium phosphate as the placebo, was administered daily from day 3 until day 11 (with the exception of day 9). Animals were scored daily until day 14 for degree of inflammation. Mean arthritis score per experimental group (5 mice) is indicated at each time point.
One of the peptide based human PAD 2 and PAD 4 inhibitors was tested in the commercially available collagen antibody induced arthritis (CAIA) mouse model (Modiquest research B.V., product number 18.101). Experimental procedures were performed according to manufacturers specifications to induce arthritis in mice (World Wide Web (www) modiquestresearch.n1/shop/files/18.101-50MG%20 —2007.08.22.pdf) In short, on day 0 male DBA/J1 mice (5mice/group) of the age of 8 weeks have been injected i.p. with a mix of 8 anti-collagen antibodies (2.8 mg/mouse). […]
Animals where scored daily for degree of inflammation in their paws. […]

[7] = molecular target: T2, PAD4 (Homo sapiens, UniProt Q9UM07); experiment: Conversion (R to Cit) of substrate peptides by PAD4, mass spectrometry; format: biochemical
T2 sequence (Q9UM07 whole entry): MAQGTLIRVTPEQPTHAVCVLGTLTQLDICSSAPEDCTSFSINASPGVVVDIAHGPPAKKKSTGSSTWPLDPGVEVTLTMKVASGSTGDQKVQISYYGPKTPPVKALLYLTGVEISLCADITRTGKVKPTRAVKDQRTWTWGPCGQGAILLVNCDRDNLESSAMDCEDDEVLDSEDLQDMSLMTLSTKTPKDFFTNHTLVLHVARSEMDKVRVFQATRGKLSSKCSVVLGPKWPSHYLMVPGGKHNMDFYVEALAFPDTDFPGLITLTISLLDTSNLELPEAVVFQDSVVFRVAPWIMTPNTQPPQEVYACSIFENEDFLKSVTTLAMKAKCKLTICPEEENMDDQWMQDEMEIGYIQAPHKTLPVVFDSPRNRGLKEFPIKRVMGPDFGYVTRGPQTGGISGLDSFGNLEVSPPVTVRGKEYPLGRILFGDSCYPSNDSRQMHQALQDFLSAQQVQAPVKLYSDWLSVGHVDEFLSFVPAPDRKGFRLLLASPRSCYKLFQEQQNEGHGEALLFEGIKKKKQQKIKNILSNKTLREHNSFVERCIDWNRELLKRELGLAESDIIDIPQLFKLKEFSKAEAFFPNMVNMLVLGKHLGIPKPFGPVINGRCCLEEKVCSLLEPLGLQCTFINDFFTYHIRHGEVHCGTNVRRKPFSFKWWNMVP

[8] = molecular target: T3, PAD2 (Homo sapiens, UniProt Q9Y2J8); experiment: Conversion (R to Cit) of substrate peptides by PAD2, mass spectrometry; format: biochemical
T3 sequence (Q9Y2J8 whole entry): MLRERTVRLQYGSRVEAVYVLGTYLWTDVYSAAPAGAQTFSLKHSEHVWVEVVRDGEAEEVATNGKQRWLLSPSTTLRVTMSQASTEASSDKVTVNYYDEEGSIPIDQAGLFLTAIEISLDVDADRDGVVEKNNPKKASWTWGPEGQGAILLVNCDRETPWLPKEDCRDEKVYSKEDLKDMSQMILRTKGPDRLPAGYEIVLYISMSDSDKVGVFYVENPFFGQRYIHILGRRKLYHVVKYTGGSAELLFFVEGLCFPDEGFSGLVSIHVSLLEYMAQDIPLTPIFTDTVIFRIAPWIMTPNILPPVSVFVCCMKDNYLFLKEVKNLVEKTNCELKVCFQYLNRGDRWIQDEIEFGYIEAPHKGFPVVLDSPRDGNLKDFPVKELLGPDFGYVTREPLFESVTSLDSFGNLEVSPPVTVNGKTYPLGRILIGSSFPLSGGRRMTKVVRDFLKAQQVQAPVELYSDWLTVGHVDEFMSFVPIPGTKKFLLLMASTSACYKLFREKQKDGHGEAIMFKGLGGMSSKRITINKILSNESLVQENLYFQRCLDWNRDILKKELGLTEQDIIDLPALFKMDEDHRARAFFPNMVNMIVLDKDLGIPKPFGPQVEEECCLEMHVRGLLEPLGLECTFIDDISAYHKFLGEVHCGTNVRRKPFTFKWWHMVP
Method: In a similar fashion as for PAD4 we identified improved peptide substrates for PAD2. Again L1 was used as a lead compound. The set of 152 peptides from Table 3 was used and testing was performed as described before.
Conversion of arginine into citrulline in the substrate peptides by PAD2 or PAD4 using mass spectrometry was performed as follows. A candidate substrate peptide was incubated with a PAD as indicated for several hours at 37° C. The reaction was quenched by the addition with acetic acid. A sample was analysed on a Qtof mass spectrometer (Micromass, UK) and the mass spectrum was compared with that of the same peptide not treated with PAD. Normally, 2^+- and 3^+-ions are detected. The conversion (ΔM=0.98 Da) was calculated on the 2^+- and 3^+-ions individually, and subsequently averaged taking into account the relative peak height of the 2^+- and 3^+-signals (see FIG. 5).

[9] = molecular target: T3, PAD2; experiment: Citrullination of synthetic peptides by recombinant human PAD2 (MALDI-TOF and ESI-Q-TOF mass spectrometry); format: biochemical; set-up: His6; made in house; details: for PAD2 conversion: Arg: share of peptide still unconverted (Arg); for PAD2 conversion: 1 Cit: share of peptide with one citrulline; for PAD2 conversion: 2 Cit: share of peptide with two citrullines
Method: (§1) Subsequently, the citrullinated proteins were isolated from the cell lysates by immunoaffinity purification using the RA3 single chain antibody fragment (scFv), which is specific for citrullinated epitopes {Raats et al., 2003}. After digestion of the purified proteins with trypsin, the amino acid sequence of the resulting peptides was determined by tandem mass spectrometry. Based upon the mass spectrometry data the peptides containing citrullinated residues were identified. In total 90 and 57 citrullinated peptides were identified in proteins derived from the COS-1 cells expressing PAD2 and PAD4, respectively, and 107 and 38 citrullinated peptides were obtained from HEK-293 cell material for PAD2 and PAD4, respectively. The frequency of amino acids at each of the positions between 5 residues N-terminal and 5 residues C-terminal from a citrullinated residue was derived from the combined sequences of these sites and is illustrated in Table 1. […] The efficiency by which these peptides were citrullinated by the human PAD2 and PAD4 enzymes was investigated by incubating them with the bacterially expressed, His6-tagged and IMAC purified, recombinant enzymes, followed by analysis of the products by both MALDI-TOF and ESI-Q-TOF mass spectrometry.

[10] = molecular target: T2, PAD4; experiment: Citrullination of synthetic peptides by recombinant human PAD4 (MALDI-TOF and ESI-Q-TOF mass spectrometry); format: biochemical; set-up: His6; made in house; details: for PAD4 conversion: Arg: share of peptide still unconverted (Arg); for PAD4 conversion: 1 Cit: share of peptide with one citrulline; for PAD4 conversion: 2 Cit: share of peptide with two citrullines
Method: as §1

[11] = molecular target: His-tagged PAD4 (Homo sapiens, UniProt Q9UM07); experiment: Binding of biotinylated inhibitor peptide to His-tagged PAD4 (SDS-PAGE and blot); details: 3 h at 37° C.; binding resistant to boiling in the presence of SDS
Chain of His-tagged PAD4 (Q9UM07 whole entry): as the sequence (Q9UM07 whole entry) above
Method: In the following experiments mixtures of various quantities of biotinylated inhibitor peptide (biotin-Ahx-D-S-K-K-H-D-O(FA)-D-F-L-Y-S-D-amide (SEQ ID NO: 112), O(FA)=ornithine fluoroamidine, Ahx=6-aminohexanoic acid) and a fixed amount of His-tagged PAD4 were analysed. In short, 10 μl PAD4 solution was mixed with 10 μl inhibitor solution and incubated for 3 h at 37° C. After the addition of loading buffer containing SDS, samples were either boiled for 5 minutes or kept at room temperature. Samples were loaded on a 10% polyacrylamide gel and subjected to electrophoresis (about 1 h). Proteins were transferred to a PVDF membrane and developed with either streptavidin-alkaline phosphatase conjugate (FIG. 2) or with mouse-anti-His antibody followed by goat-anti-mouse alkaline phosphatase conjugate (FIG. 3), followed by visualisation using NBT/BCIP. In Table 18 the samples are specified.
In FIG. 2 the biotin group of the inhibitor is visualised. Only lanes where the biotinylated inhibitor is present show a coloured band. The position of the bands is around the expected molecular weight of PAD4 (77 kDa). This indicates binding of the biotinylated peptide to PAD4. This binding is not broken by boiling of the sample in the presence of SDS. In FIG. 3 the His-tag of PAD4 is visualised. Only lanes where PAD4 is present show a coloured band. […]

Row | Compound | PAD2 conversion: Arg [9] [%] | PAD2 conversion: 1 Cit [9] [%] | PAD4 conversion: Arg [10] [%] | PAD4 conversion: 1 Cit [10] [%] | PAD2 conversion: 2 Cit [9] [%] | PAD4 conversion: 2 Cit [10] [%] | other results
1 | COC(=O)N[C@H](C(=O)N[C@@H](CC(=O)O)C(=O)N[C@@H](CCCNC(=N)CF)C(=O)NCC(=O)N[C@@H](CO)C(=O)OC)[C@@H](C)O [CXP5-101, MeO2C-T-D-O(FA)-G-S-methylester] (Moc-TD[Orn(fluoroacetimidoyl)]GS-OMe) | – | – | – | – | – | – | IC50 [1]: 780 µM
2 | CC(=O)NCC(=O)N[C@@H](CC(=O)O)C(=O)N[C@@H](CCCNC(=N)CCl)C(=O)NCC(=O)N[C@@H](CO)C(=O)O [CXP5.2-078, Ac-G-D-O(CA)-G-S] (Ac-GD[X1]GS-OH; N-terminus and C-terminus assumed) | – | – | – | – | – | – | IC50 [1]: 780 µM
3 | CC(=O)N[C@@H](CCCCN)C(=O)N[C@@H](Cc1c[nH]c2ccccc12)C(=O)N[C@@H](Cc1c[nH]cn1)C(=O)N[C@@H](CCCNC(=N)CF)C(=O)N[C@@H](CC(=O)O)C(=O)N[C@@H](Cc1ccccc1)C(=O)N[C@@H](Cc1ccccc1)C(N)=O [Peptide 0748-09FA, Ac-K-W-H-O(FA)-D-F-F-amide] (Ac-KWH[Orn(fluoroacetimidoyl)]DFF-NH2) | – | – | – | – | – | – | IC50 [2]: > 1000 µM; IC50 [3]: > 1000 µM; IC50 [4]: > 2000 µM
4 | CC(=O)O[C@H]1C(=O)[C@@]2(C)[C@H]([C@H](OC(=O)c3ccccc3)[C@]3(O)C[C@H](OC(=O)[C@H](O)[C@@H](NC(=O)c4ccccc4)c4ccccc4)C(C)=C1C3(C)C)[C@]1(OC(C)=O)CO[C@@H]1C[C@@H]2O [paclitaxel] | – | – | – | – | – | – | inhibition of citrullination of MBP by PAD2 [5]: can inhibit citrullination of MBP by PAD2 in vitro
5 | Ac-Y-D-O(CA)-G-S-amide (Ac-YD[Orn](CA)GS-NH2; SMILES CC(=O)N[C@@H](Cc1ccc(O)cc1)C(=O)N[C@@H](CC(=O)O)C(=O)N[C@@H](CCCNC(=N)CCl)C(=O)NCC(=O)N[C@@H](CO)C(N)=O) [CXP5.7-011] | – | – | – | – | – | – | degree of inflammation (mean arthritis score) [6]: clearly demonstrates the inhibitory potential of the inhibitor in this model
6 | D-S-Q-F-A-F-R-G-A-S-A-S-D (DSQFAFRGASASD) [Peptide 0308-29, reference compound] | 68 | 32 | 98 | 2 | – | – | Conversion (%) ([7]; Table 4, 13-mer peptides, PAD4): 30% (=L1); Conversion by PAD4 (%) ([7]; Table 10): <20(=L1) %; conversion of L1 analogs by PAD4 ([7]; relative to conversion of L1 under standard conditions (L1 = 100), single substitution at positions -4 to 4): 100%; Conversion (%) ([8]; Table 9, PAD2): 45 (=L1) %; Conversion by PAD2 (%) ([8]; Table 10): <20(=L1) %; conversion of L1 analogs by PAD2 ([8]; relative to conversion of L1 (L1 = 100), single substitution at positions -4 to 4): 100%
7 | DSRFYWRGGGKSD [SEQ ID NO: 10] | 14 | 14 | 6 | 69 | 73 | 25 | –
8 | DSSEELRGGGKSD [SEQ ID NO: 9] | 43 | 57 | 93 | 7 | – | – | –
9 | DSYRSWRDGYYSD [SEQ ID NO: 4] | 16 | 30 | 1 | 99 | 55 | 0 | –
10 | GGYSGDRSGGGYG [SEQ ID NO: 2] | 33 | 67 | 61 | 39 | – | – | –
11 | IEIITDRQSGKKR [SEQ ID NO: 7] | 5 | 70 | 2 | 88 | 25 | 10 | –
12 | IEIMTDRGSGKKR [SEQ ID NO: 5] | 6 | 34 | 37 | 60 | 60 | 3 | –
13 | IGSRGDRSGFGKF [SEQ ID NO: 6] | 1 | 96 | 2 | 69 | 4 | 29 | –
14 | biotin-Ahx-D-S-K-K-H-D-O(FA)-D-F-L-Y-S-D-amide [biotinylated inhibitory peptide] | – | – | – | – | – | – | mode of binding of the inhibitor to PAD4 [11]: covalent binding of the inhibitor to PAD4
